Laboratory results from patent US9463217B1, “Methods and pharmaceutical compositions for treatment of retinal occlusion” (Institut National de la Sante et de la Recherche Medicale, priority 2012, dated 2016).

Assays:
RBC adhesion in SCD = details: treatment by hydroxyurea, ref. [32]; cited from earlier work
[1] = tested on: adhesion of red blood cells (RBCs) from patients with central retinal vein occlusion to human microvascular endothelial cells (HMEC-1); assay: RBC adhesion to HMEC under static conditions (radiometric 51Cr technique), inhibition by antibodies, peptide or annexin V; format: cell-based
Description: (§1) Blood samples were tested after storage at −196° C. as previously described. For the first 10 patients, RBC adhesion (on three occasions, n=30) was measured just after blood sampling and after storage. As the results were similar before and after storage (the interassay coefficient of variation was 13%±2%) all remaining patients were tested after storage.
RBC adhesion was measured under static conditions using a radiometric technique as previously described. Human microvascular endothelial cells (HMEC-1 Biological Branch Products; CDC, Atlanta, Ga., USA) were cultured in MCDB-131 (Invitrogen, Grand Island, N.Y., USA) supplemented with 15% fetal calf serum (D. Dutscher, Brumath, France), endothelial growth factor (10 ng mL^−1) and hydrocortisone (1 μg mL^−1)(Invitrogen). […] Radioactivity in the lysate was measured in a gamma counter, and adhesion was then calculated as RBCs per square millimeter. […] Inhibition of RBC adhesion was assessed using HMEC preincubated with specific antibodies directed against PS receptor (polyclonal anti-PS receptor antibody, Sigma, St Louis, Mo., USA; polyclonal anti-human stabilin-2 antibody, R&D systems, Minneapolis, Minn., USA) or against human CD36 (monoclonal anti-CD36/SR-B3; R&D systems) or antihuman Brain-specific angiogenesis inhibitor-1 (BAI-1; Santa Cruz Biotechnology, Santa Cruz, Calif., USA). […]

[2] = tested on: adhesion of red blood cells (RBCs) from patients with central retinal vein occlusion to human microvascular endothelial cells (HMEC); assay: RBC adhesion to HMEC under flow conditions (microslides, video-microscopy), inhibition by antibodies, peptide or annexin V; format: cell-based
Description: as §1
Adhesion of RBCs to HMEC under flow conditions was determined according to a previously published technique. Briefly, HMEC were cultured in gelatin (2%) coated glass capillaries (microslides; Camlab Ltd, Cambridge, UK) for 24 h. Microslides containing confluent HMEC were mounted on the stage of a video-microscope. The RBC suspension (hematocrit 0.5%) was perfused through the microslide at a flow rate equivalent to a wall shear stress of 0.03 Pa for […], followed by washout of non-adherent cells for 10 min. The wall shear stress was then increased stepwise (from 0.03 to 0.3 Pa) every 5 min. At each step, adherent RBCs were video-recorded in 10 consecutive fields (one field measures 0.1 mm^2), then were counted using a computerized image analysis system (Optimas Media Cybernetics, Bethesda, Md., USA; R & D Vision, Paris, France) and expressed as number of RBCs per mm^2. Inhibition of RBC adhesion was measured in the presence of the antibodies used in static conditions or after RBC incubation with annexin V.

Row | Molecule | effect on RBC adhesion (in words) (RBC adhesion in SCD) | inhibition of CRVO RBC adhesion to HMEC [1] | inhibition of CRVO RBC adhesion to HMEC ([2]; according to the shear stress) | inhibition of CRVO RBC adhesion to HMEC ([2]; shear stress 0.1 Pa) | inhibition of CRVO RBC adhesion to HMEC ([2]; shear stress 0.3 Pa)
1 | NC(=O)NO [hydroxyurea] | reduced RBC adhesion |  |  |  | 
2 | Annexin V: recombinant, purified annexin V (BD Biosciences); binds to PS (protein, UniProt P08758 2-320, looked up) Annexin A5: AQVLRGTVTDFPGFDERADAETLRKAMKGLGTDEESILTLLTSRSNAQRQEISAAFKTLFGRDLLDDLKSELTGKFEKLIVALMKPSRLYDAYELKHALKGAGTNEKVLTEIIASRTPEELRAIKQVYEEEYGSSLEDDVVGDTSGYYQRMLVVLLQANRDPDAGIDEAQVEQDAQALFQAGELKWGTDEEKFITIFGTRSVSHLRKVFDKYMTISGFQIEETIDRETSGNLEQLLLAVVKSIRSIPAYLAETLYYAMKGAGTDDHTLIRVMVSRSEIDLFNIRKEFRKNFATSLYSMIKGDTSGDYKKALLLLCGEDD |  | 35% | 68-74% | 75%±6% | 74%±8%
